These results are taken from US20230365693A1 (BIONTECH, published 2023).

Assay [1] has as its target T1, human PD-1, full-length, expressed on cells (human (Homo sapiens), UniProt Q15116 25-288). In words: cell-based or functional assay.
The target of assay [2] is T1, human PD-1, full-length, expressed on …. In words: cell-based or functional assay. This is another data set of the same source.

“And” between values parts separate entries of the source, which are not always exact repeats. Equal values may be shown once.

T1 sequence (Q15116 25-288): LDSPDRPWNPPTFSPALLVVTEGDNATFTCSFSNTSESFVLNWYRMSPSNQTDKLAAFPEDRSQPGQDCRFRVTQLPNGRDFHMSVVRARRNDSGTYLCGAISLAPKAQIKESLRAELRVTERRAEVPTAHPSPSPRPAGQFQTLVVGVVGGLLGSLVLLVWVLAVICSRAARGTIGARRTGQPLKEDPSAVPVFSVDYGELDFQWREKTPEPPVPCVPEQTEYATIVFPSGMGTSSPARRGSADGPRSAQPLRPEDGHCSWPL

B1: IgG1-PD1 (antibody)
heavy: QVQLVESGGGLVQPGTSLRLSCSVSGFSLYSYNMGWVRQAPGKGLEYIGIISGGTIGHYASWAKGRFTISRDTSKTTLYLQMNSLTTEDTATYFCARAFYDDYDYNVWGPGTLVTVSSASTKGPSVFPLAPSSKSTSGGTAALGCLVKDYFPEPVTVSWNSGALTSGVHTFPAVLQSSGLYSLSSVVTVPSSSLGTQTYICNVNHKPSNTKVDKRVEPKSCDKTHTCPPCPAPEFERGPSVFLFPPKPKDTLMISRTPEVTCVVVDVSHEDPEVKFNWYVDGVEVHNAKTKPREEQYNSTYRVVSVLTVLHQDWLNGKEYKCKVSNKALPAPIEKTISKAKGQPREPQVYTLPPSREEMTKNQVSLTCLVKGFYPSDIAVEWESNGQPENNYKTTPPVLDSDGSFFLYSKLTVDKSRWQQGNVFSCSVMHEALHNHYTQKSLSLSPG
light: AIQLTQSPSSLSASVGGTVTITCQSSQSVYGNNQLSWYQQKPGQPPKLLIYQASKLETGVPSRFRGSGSGTQFTLTISSLQSEDFATYYCAGGYSSSSDTTFGGGTEVVVKRTVAAPSVFIFPPSDEQLKSGTASVVCLLNNFYPREAKVQWKVDNALQSGNSQESVTEQDSKDSTYSLSSTLTLSKADYEKHKVYACEVTHQGLSSPVTKSFNRGEC
Take B1: the “EC50 in the antigen-specific proliferation assay (CD8+ T-cell expansion index)” value in assay [1] is 0.0124 µg/mL and 0.0837 nM. In addition, the “EC50 of PD-1/PD-L1 checkpoint blockade, bioluminescent cell-based reporter assay” value in assay [2] was 0.165 µg/mL and 1.12 nM.
